The subject of data set [1] is HeLa Kyoto. Kind of data set: melting temperature (median over replicates), in situ; higher = more thermally stable.
The test system of data set [2] is HeLa Kyoto. The experiment in a line: solubility in G1/S (NP-40 vs SDS abundance) (log2 ratio); higher = more soluble. The note with it: cell cycle stage: G1/S.
Data set [3] concerns HeLa Kyoto. The experiment in a line: thermal stability score vs G1/S (z-score of summed log2 fold changes over temperatures); higher = more thermally stable than in G1/S.
The subject of data set [4] is HeLa Kyoto. The experiment in a line: solubility change mitosis vs G1/S (difference of NP-40 vs SDS log2 ratios) (log2 ratio difference); higher = more soluble in mitosis.
[5] abbreviates: cell cycle stage: early G1 (4.5 h after nocodazole release).
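Throughout, for melting temperature (median over replicates), in situ: HeLa Kyoto cells synchronized by double thymidine or nocodazole block, proteins quantified by TMT10plex mass spectrometry, three independent biological replicates.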
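Throughout, for solubility change mitosis vs G1/S (difference of NP-40 vs SDS log2 ratios): synchronized HeLa Kyoto cells (double thymidine block for G1/S, nocodazole release for mitosis), protein amounts in NP-40 versus SDS lysates quantified by mass spectrometry, three biological replicates.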
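Throughout, for solubility in G1/S (NP-40 vs SDS abundance): HeLa Kyoto cells arrested at G1/S by double thymidine block, proteins quantified by TMT10plex mass spectrometry in mild NP-40 versus SDS extracts, three biological replicates.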
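Throughout, for thermal stability score vs G1/S (z-score of summed log2 fold changes over temperatures): synchronized HeLa Kyoto cells, proteins quantified by TMT10plex mass spectrometry, three biological replicates, mitosis taken 0.5 h after nocodazole release, G1/S directly after double thymidine block.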

“MWALCSLLRSAAGRTMSQGRTISQAPARRERPRKDPLRHLRTREKRGPSGCSGGPNTVYLQVVAAGSRDSGAALYVFSEFNRYLFNCGEGVQRLMQEHKLKVARLDNIFLTRMHWSNVGGLSGMILTLKETGLPKCVLSGPPQLEKYLEAIKIFSGPLKGIELAVRPHSAPEYEDETMTVYQIPIHSEQRRGKHQPWQSPERPLSRLSPERSSDSESNENEPHLPHGVSQRRGVRDSSLVVAFICKLHLKRGNFLVLKAKEMGLPVGTAAIAPIIAAVKDGKSITHEGREILAEELCTPPDPGAAFVVVECPDESFIQPICENATFQRYQGKADAPVALVVHMAPASVLVDSRYQQWMERFGPDTQHLVLNENCASVHNLRSHKIQTQLNLIHPDIFPLLTSFRCKKEGPTLSVPMVQGECLLKYQLRPRREWQRDAIITCNPEEFIVEALQLPNFQQSVQEYRRSAQDGPAPAEKRSQYPEIIFLGTGSAIPMKIRNVSATLVNISPDTSLLLDCGEGTFGQLCRHYGDQVDRVLGTLAAVFVSHLHADHHTGLPSILLQRERALASLGKPLHPLLVVAPNQLKAWLQQYHNQCQEVLHHISMIPAKCLQEGAEISSPAVERLISSLLRTCDLEEFQTCLVRHCKHAFGCALVHTSGWKVVYSGDTMPCEALVRMGKDATLLIHEATLEDGLEEEAVEKTHSTTSQAISVGMRMNAEFIMLNHFSQRYAKVPLFSPNFSEKVGVAFDHMKVCFGDFPTMPKLIPPLKALFAGDIEEMEERREKRELRQVRAALLSRELAGGLEDGEPQQKRAHTEEPQAKKVRAQ [ELAC2]”: the results for the melting temperature in the data set with HeLa Kyoto [1] (cell cycle stage: G1/S) and in the data set with HeLa Kyoto [1] (cell cycle stage: mitosis) were 56.2 °C and 56.8 °C, respectively. The “solubility in G1/S (log2)” value in the data set with HeLa Kyoto [2] stood at 0.0837. The thermal stability score in the data set with HeLa Kyoto [3] (setting [5]) is -1.66; in the data set on HeLa Kyoto [3] (cell cycle stage: mitosis), -2.38. In addition, the “solubility change mitosis (log2)” value in the data set on HeLa Kyoto [4] was -0.0127.
In the case of CAMSAP1, the melting temperature in the data set with HeLa Kyoto [1] (cell cycle stage: G1/S) was 50.4 °C; with HeLa Kyoto [1] (cell cycle stage: mitosis), 50.2 °C. In the data set with HeLa Kyoto [2], the “solubility in G1/S (log2)” value was -0.149. Moreover, the thermal stability score in the data set on HeLa Kyoto [3] (setting [5]) was -0.2; with HeLa Kyoto [3] (cell cycle stage: mitosis) it was 0.324. Besides, the “solubility change mitosis (log2)” value in the data set with HeLa Kyoto [4] is 0.0139.
“MGDREQLLQRARLAEQAERYDDMASAMKAVTELNEPLSNEDRNLLSVAYKNVVGARRSSWRVISSIEQKTMADGNEKKLEKVKAYREKIEKELETVCNDVLSLLDKFLIKNCNDFQYESKVFYLKMKGDYYRYLAEVASGEKKNSVVEASEAAYKEAFEISKEQMQPTHPIRLGLALNFSVFYYEIQNAPEQACLLAKQAFDDAIAELDTLNEDSYKDSTLIMQLLRDNLTLWTSDQQDEEAGEGN [YWHAH]”: the melting temperature in the data set with HeLa Kyoto [1] (cell cycle stage: G1/S) amounted to 52.5 °C; in the data set with HeLa Kyoto [1] (cell cycle stage: mitosis), 52.6 °C. In addition, the “solubility in G1/S (log2)” value in the data set with HeLa Kyoto [2] was 0.565. Also, the thermal stability score in the data set on HeLa Kyoto [3] (setting [5]) was -1.65; in the data set on HeLa Kyoto [3] (cell cycle stage: mitosis), -1.58. For the same substance, the “solubility change mitosis (log2)” value in the data set with HeLa Kyoto [4] was 0.0669.
On to “MPAVLGFEGSANKIGVGVVRDGKVLANPRRTYVTPPGTGFLPGDTARHHRAVILDLLQEALTESGLTSQDIDCIAYTKGPGMGAPLVSVAVVARTVAQLWNKPLVGVNHCIGHIEMGRLITGATSPTVLYVSGGNTQVIAYSEHRYRIFGETIDIAVGNCLDRFARVLKISNDPSPGYNIEQMAKRGKKLVELPYTVKGMDVSFSGILSFIEDVAHRMLATGECTPEDLCFSLQETVFAMLVEITERAMAHCGSQEALIVGGVGCNVRLQEMMATMCQERGARLFATDERFCIDNGAMIAQAGWEMFRAGHRTPLSDSGVTQRYRTDEVEVTWRD [OSGEP]”, for which the melting temperature in the data set with HeLa Kyoto [1] (cell cycle stage: G1/S) came to 55.5 °C; in the data set with HeLa Kyoto [1] (cell cycle stage: mitosis), 55.4 °C. Also, the “solubility in G1/S (log2)” value with HeLa Kyoto [2] is 0.0103. Moreover, the thermal stability score with HeLa Kyoto [3] (setting [5]) was 0.00035; in the data set on HeLa Kyoto [3] (cell cycle stage: mitosis), -1.39. For the same substance, the “solubility change mitosis (log2)” value with HeLa Kyoto [4] is -0.136.
With SEPHS1, the melting temperature with HeLa Kyoto [1] (cell cycle stage: G1/S) and in the data set with HeLa Kyoto [1] (cell cycle stage: mitosis) was 58.8 °C each time. In addition, the “solubility in G1/S (log2)” value in the data set with HeLa Kyoto [2] amounted to 0.503. In addition, the figures for the thermal stability score in the data set on HeLa Kyoto [3] (setting [5]) and with HeLa Kyoto [3] (cell cycle stage: mitosis) were -1.3 and -1.24, respectively. For the same substance, the “solubility change mitosis (log2)” value in the data set on HeLa Kyoto [4] is -0.0554.
As to ATG3, the melting temperature in the data set on HeLa Kyoto [1] (cell cycle stage: G1/S) turned out to be 54.3 °C; in the data set on HeLa Kyoto [1] (cell cycle stage: mitosis), 54.1 °C. In addition, in the data set on HeLa Kyoto [2], the “solubility in G1/S (log2)” value amounted to 0.11. Also, the thermal stability score is 0.129 with HeLa Kyoto [3] (setting [5]) and -0.694 with HeLa Kyoto [3] (cell cycle stage: mitosis). In addition, the “solubility change mitosis (log2)” value in the data set on HeLa Kyoto [4] was -0.0379.
Regarding “MAHTTKVNGSASGKAGDILSGDQDKEQKDPYFVETPYGYQLDLDFLKYVDDIQKGNTIKRLNIQKRRKPSVPCPEPRTTSGQQGIWTSTESLSSSNSDDNKQCPNFLIARSQVTSTPISKPPPPLETSLPFLTIPENRQLPPPSPQLPKHNLHVTKTLMETRRRLEQERATMQMTPGEFRRPRLASFGGMGTTSSLPSFVGSGNHNPAKHQLQNGYQGNGDYGSYAPAAPTTSSMGSSIRHSPLSSGISTPVTNVSPMHLQHIREQMAIALKRLKELEEQVRTIPVLQVKISVLQEEKRQLVSQLKNQRAASQINVCGVRKRSYSAGNASQLEQLSRARRSGGELYIDYEEEEMETVEQSTQRIKEFRQLTADMQALEQKIQDSSCEASSELRENGECRSVAVGAEENMNDIVVYHRGSRSCKDAAVGTLVEMRNCGVSVTEAMLGVMTEADKEIELQQQTIESLKEKIYRLEVQLRETTHDREMTKLKQELQAAGSRKKVDKATMAQPLVFSKVVEAVVQTRDQMVGSHMDLVDTCVGTSVETNSVGISCQPECKNKVVGPELPMNWWIVKERVEMHDRCAGRSVEMCDKSVSVEVSVCETGSNTEESVNDLTLLKTNLNLKEVRSIGCGDCSVDVTVCSPKECASRGVNTEAVSQVEAAVMAVPRTADQDTSTDLEQVHQFTNTETATLIESCTNTCLSTLDKQTSTQTVETRTVAVGEGRVKDINSSTKTRSIGVGTLLSGHSGFDRPSAVKTKESGVGQININDNYLVGLKMRTIACGPPQLTVGLTASRRSVGVGDDPVGESLENPQPQAPLGMMTGLDHYIERIQKLLAEQQTLLAENYSELAEAFGEPHSQMGSLNSQLISTLSSINSVMKSASTEELRNPDFQKTSLGKITGNYLGYTCKCGGLQSGSPLSSQTSQPEQEVGTSEGKPISSLDAFPTQEGTLSPVNLTDDQIAAGLYACTNNESTLKSIMKKKDGNKDSNGAKKNLQFVGINGGYETTSSDDSSSDESSSSESDDECDVIEYPLEEEEEEEDEDTRGMAEGHHAVNIEGLKSARVEDEMQVQECEPEKVEIRERYELSEKMLSACNLLKNTINDPKALTSKDMRFCLNTLQHEWFRVSSQKSAIPAMVGDYIAAFEAISPDVLRYVINLADGNGNTALHYSVSHSNFEIVKLLLDADVCNVDHQNKAGYTPIMLAALAAVEAEKDMRIVEELFGCGDVNAKASQAGQTALMLAVSHGRIDMVKGLLACGADVNIQDDEGSTALMCASEHGHVEIVKLLLAQPGCNGHLEDNDGSTALSIALEAGHKDIAVLLYAHVNFAKAQSPGTPRLGRKTSPGPTHRGSFD [KANK1]”, the melting temperature was 49.3 °C in the data set with HeLa Kyoto [1] (cell cycle stage: G1/S) and 49.4 °C in the data set on HeLa Kyoto [1] (cell cycle stage: mitosis). Further, the “solubility in G1/S (log2)” value with HeLa Kyoto [2] is -0.0496. The thermal stability score in the data set on HeLa Kyoto [3] (setting [5]) was 0.397; with HeLa Kyoto [3] (cell cycle stage: mitosis), 2.14. The “solubility change mitosis (log2)” value in the data set with HeLa Kyoto [4] was -0.0616.

For the origin of these results see the supplement of paper PMC5998384.
